Measured values taken from the supplement of paper PMC7125110.
± gives the standard error. For some assays here: Fewer inactive variants are shown than the library holds.

B1: glmS ribozyme (parent)
chain: AUAAAAGCGCCAGAACUACAGAAAUGUAGUUGACGAGGAGGAGGUUUAUCGAAUUUUCGGCGGAUGCCUCCAAA

Legend:
Conditions in all cases: with glucosamine-6-phosphate
[1] = variants of: B1; experiment: kcat; higher = faster cleavage; RNA array
How it was run: (§1)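 Tiles bearing barcoded ribozyme variants, transcribed in situ by E. coli RNA polymerase on sequenced MiSeq chips, were imaged over ~14 h at 37 °C using a hybridised Cy3 probe. Glucosamine-6-phosphate was supplied at 40 μM to 10 mM in HEPES/KCl/Mg(OAc)2 buffer. kobs came from one- or two-exponential decay fits to normalised per-tile medians, and weighted Michaelis–Menten fits then provided kcat and KM.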

[2] = variants of: B1; experiment: self-cleavage kobs at 640 uM GlcN6P; higher = faster cleavage; RNA array
How it was run: as §1

[3] = variants of: B1; experiment: self-cleavage kobs at 2500 uM GlcN6P; higher = faster cleavage; RNA array
How it was run: as §1

[4] = variants of: B1; experiment: self-cleavage kobs at 10000 uM GlcN6P; higher = faster cleavage; RNA array
How it was run: as §1

[5] = variants of: B1; experiment: self-cleavage kobs at 40 uM GlcN6P; higher = faster cleavage; RNA array
How it was run: as §1

[6] = variants of: B1; experiment: KM; higher = weaker cofactor use; RNA array
How it was run: as §1

[7] = variants of: B1; experiment: self-cleavage kobs at 160 uM GlcN6P; higher = faster cleavage; RNA array
How it was run: as §1

| Variant | kcat [1] | self-cleavage kobs at 640 uM GlcN6P [2] | self-cleavage kobs at 2500 uM GlcN6P [3] | self-cleavage kobs at 10000 uM GlcN6P [4] | self-cleavage kobs at 40 uM GlcN6P [5] | KM [6] | self-cleavage kobs at 160 uM GlcN6P [7] |
| --- | --- | --- | --- | --- | --- | --- | --- |
| AUAAAAGCGCCAGAACUACAGAAAUGUAGGUGACGAGGAGGAGGUAUAUCGAAUUUUCGGCGGAUCCCUCCAAA | 0.000292 ± 0.00014 s⁻¹ | 6.55e-05 ± 2.5e-05 s⁻¹ | 0.00038 ± 8.8e-05 s⁻¹ | 0.000218 ± 5.4e-05 s⁻¹ | – | – | – |
| AUAAAAGCGCCAGAACUACAGAAAUGUAGGUCACGAGGAGGAGGUUUAUCGAAUUUUCGGCGGAUGCCUCCAAA | 0.000158 ± 2.5e-05 s⁻¹ | – | 0.000149 ± 3e-05 s⁻¹ | 0.000134 ± 1.6e-05 s⁻¹ | – | – | – |
| AUAAAAGCGCCAGAACUACAGAAAUGUAGCUGACGAGGAGGAGGUUUAUCGAAUUUUCGUCGGAUGCCUCCAAA | < 1e-05 s⁻¹ | < 1e-05 s⁻¹ | – | < 1e-05 s⁻¹ | < 1e-05 s⁻¹ | – | – |
| AUAAAAGCGCCAGAACUACAGAAAUGUAGCUGACGAGGAAGAGGUUUAUCGAAUUUUCGGCGGAUGCCUCCAAA | 9.74e-05 ± 1.5e-05 s⁻¹ | – | 4.56e-05 ± 1.3e-05 s⁻¹ | 7.27e-05 ± 1.2e-05 s⁻¹ | < 1e-05 s⁻¹ | 3260 ± 1400 µM | – |
| AUAAAAGCGCCAGAACUACAGAAAUGUAGCUGACGAGGACGAGGUUUAUCGAAUUUUCGGCGGAUGCCUCCAAA | 4.04e-05 ± 5.2e-06 s⁻¹ | – | 2.58e-05 ± 1.2e-05 s⁻¹ | 3.87e-05 ± 1.2e-05 s⁻¹ | – | – | – |
| AUAAAAGCGCCAGAACUACAGAAAUGUAGCUGACGAGGAGGAGGUUUAUCGAAUUUUCGGGGGAUGCCUCCAAA | 1.42e-05 ± 1.3e-06 s⁻¹ | – | – | – | – | – | – |
| AUAAAAGCGCCAGAACUACAGAAAUGUAGCUGACGAGGAGGAGGUUAAUCGAAUUUUCGGCGGAUGCCUCCAAA | 0.000176 ± 9.3e-06 s⁻¹ | 5.72e-05 ± 8.2e-06 s⁻¹ | 0.000106 ± 1.2e-05 s⁻¹ | 0.00016 ± 1.6e-05 s⁻¹ | – | 1400 ± 190 µM | – |
| AUAAAAGCGCCAGAACUACAGAAAUGUAGGUGACGAGGAGGAGGUUUAUCGACUUUUCGGCGGAUGCCUCCAAA | 0.00231 ± 0.0004 s⁻¹ | 0.000512 ± 0.0001 s⁻¹ | 0.00138 ± 0.00034 s⁻¹ | 0.00177 ± 0.00022 s⁻¹ | – | 2690 ± 910 µM | 0.000159 ± 6.4e-05 s⁻¹ |
| AUAAAAGCGCCAGAACUACAGAAAUGUAGCUGACGACGAGGAGGUUUAUCGAAUUUUCGGCGGAUGCCUUCAAA | 1.63e-05 ± 2e-06 s⁻¹ | – | – | – | – | – | – |
| AUAAAAGCGCCAGAACUACAGAAAUGUAGCUGACGAGGAGGAGGUUUAUCGAAUUUUCGGCGGAUUCCUCCAAA | < 1e-05 s⁻¹ | – | – | – | – | – | < 1e-05 s⁻¹ |
| AUAAAAGCGCCAGAACUACAGAAAUGUAGGUGACGAGGAGGAGGCUUAUCGAAUUUUCGGCGGAUGCCUCCAAA | 0.000451 ± 9.8e-05 s⁻¹ | 0.000201 ± 8.3e-05 s⁻¹ | 0.00024 ± 7.8e-05 s⁻¹ | 0.000435 ± 9.4e-05 s⁻¹ | – | – | – |
| AUAAAAGCGCCAGAACUACAGAAAUGUAGGUGACGAGGAGGAGGUUUAUAGAAUUUUCGGCGGAUGCCUCCAAA | < 1e-05 s⁻¹ | – | – | – | < 1e-05 s⁻¹ | – | – |
| AUAAAAGCGCCAGAACUACAGAAAUGUAGCUGACGAGGAGGAGGUUUAUCGAACUUUCGGCGGAUGCCUCCAAA | 0.000253 ± 0.00011 s⁻¹ | 7.76e-05 ± 1.2e-05 s⁻¹ | 9.4e-05 ± 2.7e-05 s⁻¹ | 0.000271 ± 4.1e-05 s⁻¹ | – | – | 4.17e-05 ± 1.8e-05 s⁻¹ |
| AUAAAAGCGCCAGAACUACAGAAAUGUAGGUGACGAGGAGGAGGUUUAUCGAAUUUUUGGCGGAUGCCUCCAAA | 5.55e-05 ± 8.1e-06 s⁻¹ | – | – | 4.54e-05 ± 1.6e-05 s⁻¹ | – | – | – |
| AUAAAAGCGCCAGAACUACAGAAAUGUAGGUGACGAGGAGGAGGUUUAUCGAAUUUUAGGCGGAUGCCUCCAAA | 0.000335 ± 5.6e-05 s⁻¹ | 7.21e-05 ± 8.3e-06 s⁻¹ | 0.000154 ± 1.8e-05 s⁻¹ | 0.000293 ± 5e-05 s⁻¹ | – | 2550 ± 710 µM | – |
| AUAAAAGCGCCAGAACUACAGAAAUGUAGUAGACGAGGAGGAGGUUUAUCGACUUUUCGGCGGAUGCCUCCAAA | 0.00557 ± 0.0019 s⁻¹ | 0.000507 ± 6.9e-05 s⁻¹ | 0.00162 ± 0.00025 s⁻¹ | 0.00393 ± 0.00053 s⁻¹ | 4.92e-05 ± 9.4e-06 s⁻¹ | 5300 ± 2300 µM | 0.000229 ± 3.4e-05 s⁻¹ |
| AUAAAAGCGCCAGAACUACAGAAAUGUAGGUGACGACGAGGAGGUUUAUCGAAUUUUCGGCGGAUGCCUCCAAA | 1.26e-05 ± 3.7e-06 s⁻¹ | – | – | – | < 1e-05 s⁻¹ | – | – |
| AUAAAAGCGCCAGAACUACAGAAAUGUAGGUGACGAGGAGGAGGUUUAUCGAAAUUUCGGCGGAUGCCUCCAAA | 0.0115 ± 0.0045 s⁻¹ | 0.00201 ± 0.0004 s⁻¹ | 0.00795 ± 0.0017 s⁻¹ | 0.00853 ± 0.0011 s⁻¹ | 0.000247 ± 3.2e-05 s⁻¹ | – | 0.000384 ± 7.9e-05 s⁻¹ |
| AUAAAAGCGCCAGAACUACAGAAAUGUAGUAGACGAGGAGGAGGUUUAUCGGAUUUUCGGCGGAUGCAUCCAAA | 1.75e-05 ± 4.6e-06 s⁻¹ | – | – | – | – | – | – |
| AUAAAAGCGCCAGAACUACAGAAAUGUAGGUGACGAGGAGGAGGUUUAUCGAAUUCUCGGCGGAUGCCUCCAAA | 0.00111 ± 0.00035 s⁻¹ | 0.000359 ± 5.7e-05 s⁻¹ | 0.000454 ± 8.9e-05 s⁻¹ | 0.00109 ± 0.00017 s⁻¹ | – | – | 7.46e-05 ± 1.8e-05 s⁻¹ |
| AUAAAAGCGCCAGAACUACAGAAAUGUAGUAGUCGAGGAGGAGGUUUAUCGAAUUUUCGGCGGAUGCCUCCAAA | 2.01e-05 ± 3.8e-06 s⁻¹ | – | – | – | < 1e-05 s⁻¹ | – | – |
| AUAAAAGCGCCAGAACUACAGAAAUGUAGGUGACGAGGAGGAGGUUUAUCGAAUUUUCGGCGGAUGACUUCAAA | 0.000403 ± 2.7e-05 s⁻¹ | 0.00027 ± 6.3e-05 s⁻¹ | 0.000399 ± 0.00014 s⁻¹ | 0.000369 ± 8.4e-05 s⁻¹ | – | 353 ± 78 µM | – |
